Measurements: patent publication US20250043302A1, “MUTATED HYDROXYPHENYLPYRUVATE DIOXYGENASE POLYPEPTIDE, AND CODING GENE AND USE THEREOF” (BEIJING DABEINONG BIOTECHNOLOGY CO., LTD., priority 2021, published 2025)
Changes are numbered by the printed parent chain. Numbers in names are those of the source.

What was measured:
Type in all cases: in vivo
[1] = test system: Arabidopsis thaliana T1 plants; assay: Topramezone tolerance of transgenic Arabidopsis thaliana T1 plants (spray, bleached leaf area grade, damage score); details: for Classification and statistics of the grade of pesticide damage: Grade 0 / Classification and statistics of the grade of pesticide damage: Grade 1 / Classification and statistics of the grade of pesticide damage: Grade 2 / Classification and statistics of the grade of pesticide damage: Grade 3: number of plants; for Classification and statistics of the grade of pesticide damage Grade 0: number of plants at grade 0; for Classification and statistics of the grade of pesticide damage Grade 1: number of plants at grade 1; for Classification and statistics of the grade of pesticide damage Grade 2: number of plants at grade 2; for Classification and statistics of the grade of pesticide damage Grade 3: number of plants at grade 3
How it was run: (§1)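 Read-out: per-plant damage grade 0–3 from proportion of bleached leaf area at 7 DAT (1 <50%, 2 >50%, 3 100%). Plants were T1 transformants, glufosinate-selected, plus wild-type CK, sprayed 18 days post-sowing. Rates: topramezone 25–200, isoxaflutole 35–280, mesotrione 52.5–420 g ai/ha.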

[2] = test system: Arabidopsis thaliana T1 plants; assay: Mesotrione tolerance of transgenic Arabidopsis thaliana T1 plants (spray, bleached leaf area grade, damage score); design: Scores: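 damage score 0-100 computed as Σ(N×S)/(T×M)×100 over grades 0-3 with higher meaning more damage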; details: for Grade 0 (classification and statistics of the grade of pesticide damage; number of plants) / Grade 1 (classification and statistics of the grade of pesticide damage; number of plants) / Grade 2 (classification and statistics of the grade of pesticide damage; number of plants) / Grade 3 (classification and statistics of the grade of pesticide damage; number of plants): 16 plants; for Classification and statistics of the grade of pesticide damage Grade 0 / Classification and statistics of the grade of pesticide damage Grade 1 / Classification and statistics of the grade of pesticide damage Grade 2 / Classification and statistics of the grade of pesticide damage Grade 3: number of plants in grade
How it was run: as §1

[3] = test system: Arabidopsis thaliana T1 plants; assay: Isoxaflutole tolerance of transgenic Arabidopsis thaliana T1 plants (spray, bleached leaf area grade, damage score); design: Scores (pesticide damage): scale not given here; details: for Classification and statistics of the grade of pesticide damage: Grade 0 (number of plants) / Classification and statistics of the grade of pesticide damage: Grade 1 (number of plants) / Classification and statistics of the grade of pesticide damage: Grade 2 (number of plants) / Classification and statistics of the grade of pesticide damage: Grade 3 (number of plants): 16 plants; for Classification and statistics of the grade of pesticide damage Grade 0 / Classification and statistics of the grade of pesticide damage Grade 1 / Classification and statistics of the grade of pesticide damage Grade 2 / Classification and statistics of the grade of pesticide damage Grade 3: number of plants in grade
How it was run: as §1

[4] = topramezone 25 g ai/ha (1×), 7 DAT, Table 4
[5] = topramezone 100 g ai/ha (4×), 7 DAT, Table 4
[6] = pesticide damage score 0-100, topramezone 25 g ai/ha (1×), 7 DAT, Table 4
[7] = pesticide damage score 0-100, topramezone 100 g ai/ha (4×), 7 DAT, Table 4
[8] = mesotrione 52.5 g ai/ha, Arabidopsis thaliana T1 plants
[9] = mesotrione 105 g ai/ha, Arabidopsis thaliana T1 plants
[10] = isoxaflutole 35 g ai/ha (0.5x field concentration), spray, Arabidopsis thaliana T1 plants
[11] = isoxaflutole 70 g ai/ha (1x field concentration), spray, Arabidopsis thaliana T1 plants
[12] = Table 13, topramezone 25 g ai/ha (1×)
[13] = Table 13, topramezone 100 g ai/ha (4×)

B1: AtHPPDm-F372A-F383W-02: nucleotide sequence encoding Arabidopsis thaliana HPPD with F372A+F383W; vector DBN11733 (nucleic acid)
DNA: ATGGGACATCAGAATGCTGCTGTATCAGAAAATCAAAATCATGATGATGGAGCCGCCTCCTCACCAGGGTTTAAGTTGGTTGGGTTCTCCAAGTTTGTACGGAAGAACCCAAAATCCGACAAGTTCAAGGTTAAACGCTTCCACCACATTGAATTCTGGTGCGGCGACGCCACCAATGTTGCTCGGCGTTTTTCATGGGGTTTAGGCATGAGATTCTCAGCAAAGAGTGACCTGAGCACCGGCAACATGGTTCATGCTAGCTATCTCTTAACATCTGGAGATTTGAGGTTTCTTTTCACGGCGCCGTACTCACCATCACTCTCCGCCGGCGAGATCAAACCCACCACGACTGCAAGCATACCTTCATTTGATCATGGTAGTTGCAGATCCTTCTTCTCGTCGCACGGCCTAGGGGTGCGCGCGGTCGCCATCGAAGTTGAAGATGCAGAATCAGCGTTTAGTATCAGCGTGGCAAATGGAGCTATTCCTTCCTCCCCTCCAATTGTCCTCAATGAGGCTGTAACTATTGCCGAGGTGAAGTTGTATGGAGATGTTGTGCTGAGATATGTTTCTTACAAGGCAGAGGACACTGAGAAATCTGAATTTTTGCCTGGTTTTGAAAGGGTCGAGGATGCTTCAAGTTTTCCTCTTGATTACGGCATACGACGGTTGGATCACGCGGTTGGAAATGTACCAGAACTTGGGCCGGCGCTCACTTATGTGGCTGGTTTCACTGGATTCCATCAATTTGCTGAGTTCACAGCTGATGATGTTGGGACTGCTGAAAGTGGGTTGAACTCTGCAGTCCTCGCCTCTAATGATGAAATGGTGCTCCTCCCGATCAACGAGCCTGTGCATGGCACCAAAAGGAAATCACAAATACAGACATATCTTGAGCACAATGAAGGTGCAGGGCTTCAACATCTTGCACTGATGTCTGAAGACATTTTCCGTACGCTGAGAGAGATGAGGAAGAGAAGTAGTATTGGTGGATTTGACTTCATGCCTTCTCCCCCACCAACTTACTACCAGAACTTGAAGAAGAGGGTTGGTGATGTGCTATCTGATGACCAGATCAAGGAGTGTGAAGAATTGGGCATTCTTGTTGATCGGGACGACCAAGGAACATTACTGCAGATAGCCACAAAACCACTTGGTGACCGCCCCACTATTTGGATTGAGATCATACAAAGAGTCGGCTGCATGATGAAGGATGAGGAAGGAAAAGCATATCAATCTGGTGGTTGTGGCGGCTTTGGGAAAGGAAACTTCTCTGAGCTGTTCAAATCCATCGAGGAGTATGAGAAGACCTTGGAGGCCAAGCAGCTCGTGGGTTGA
modifications: AtHPPDm-F372A-F383W-02 Nucleotide Sequence
notes: vector DBN11733
Classification and statistics of the grade of pesticide damage: Grade 0 [1, 4]: 9
Classification and statistics of the grade of pesticide damage: Grade 1 [1, 4]: 7
Classification and statistics of the grade of pesticide damage: Grade 2 [1, 4]: 0
Classification and statistics of the grade of pesticide damage: Grade 3 [1, 4]: 0
Classification and statistics of the grade of pesticide damage: Grade 0 [1, 5]: 6
Classification and statistics of the grade of pesticide damage: Grade 1 [1, 5]: 7
Classification and statistics of the grade of pesticide damage: Grade 2 [1, 5]: 1
Classification and statistics of the grade of pesticide damage: Grade 3 [1, 5]: 2
Scores [1, 6]: 15
Scores [1, 7]: 31
Resistance evaluation [1, 4]: highly
Resistance evaluation [1, 5]: moderately
Resistance evaluation [2, 8]: Moderately
Scores [2, 8]: 21
Grade 0 (classification and statistics of the grade of pesticide damage; number of plants) [2, 8]: 8
Grade 1 (classification and statistics of the grade of pesticide damage; number of plants) [2, 8]: 6
Grade 2 (classification and statistics of the grade of pesticide damage; number of plants) [2, 8]: 2
Grade 3 (classification and statistics of the grade of pesticide damage; number of plants) [2, 8]: 0
Resistance evaluation [2, 9]: Poorly resistant
Scores [2, 9]: 44
Grade 0 (classification and statistics of the grade of pesticide damage; number of plants) [2, 9]: 2
Grade 1 (classification and statistics of the grade of pesticide damage; number of plants) [2, 9]: 8
Grade 2 (classification and statistics of the grade of pesticide damage; number of plants) [2, 9]: 5
Grade 3 (classification and statistics of the grade of pesticide damage; number of plants) [2, 9]: 1
Resistance evaluation [3, 10]: Highly
Scores (pesticide damage) [3, 10]: 15
Classification and statistics of the grade of pesticide damage: Grade 0 (number of plants) [3, 10]: 10
Classification and statistics of the grade of pesticide damage: Grade 1 (number of plants) [3, 10]: 5
Classification and statistics of the grade of pesticide damage: Grade 2 (number of plants) [3, 10]: 1
Classification and statistics of the grade of pesticide damage: Grade 3 (number of plants) [3, 10]: 0
Resistance evaluation [3, 11]: Moderately
Scores (pesticide damage) [3, 11]: 29
Classification and statistics of the grade of pesticide damage: Grade 0 (number of plants) [3, 11]: 5
Classification and statistics of the grade of pesticide damage: Grade 1 (number of plants) [3, 11]: 9
Classification and statistics of the grade of pesticide damage: Grade 2 (number of plants) [3, 11]: 1
Classification and statistics of the grade of pesticide damage: Grade 3 (number of plants) [3, 11]: 1

B2: AtHPPDm-F372A-02: nucleotide sequence encoding Arabidopsis thaliana HPPD with F372A; vector DBN11731 (nucleic acid)
DNA: B1 DNA with G1175T, G1176T
modifications: AtHPPDm-F372A-02 Nucleotide Sequence
notes: vector DBN11731
Resistance evaluation [1, 12]: Poorly
Classification and statistics of the grade of pesticide damage Grade 0 [1, 12]: 4
Classification and statistics of the grade of pesticide damage Grade 1 [1, 12]: 4
Classification and statistics of the grade of pesticide damage Grade 2 [1, 12]: 8
Classification and statistics of the grade of pesticide damage Grade 3 [1, 12]: 0
Scores ([1]; Table 13, topramezone 25 g ai/ha (1×), pesticide damage score): 42
Resistance evaluation [1, 13]: Non-resistant
Classification and statistics of the grade of pesticide damage Grade 0 [1, 13]: 0
Classification and statistics of the grade of pesticide damage Grade 1 [1, 13]: 0
Classification and statistics of the grade of pesticide damage Grade 2 [1, 13]: 4
Classification and statistics of the grade of pesticide damage Grade 3 [1, 13]: 12
Scores ([1]; Table 13, topramezone 100 g ai/ha (4×), pesticide damage score): 92
Classification and statistics of the grade of pesticide damage: Grade 0 [1, 4]: 4
Classification and statistics of the grade of pesticide damage: Grade 1 [1, 4]: 4
Classification and statistics of the grade of pesticide damage: Grade 2 [1, 4]: 8
Classification and statistics of the grade of pesticide damage: Grade 3 [1, 4]: 0
Classification and statistics of the grade of pesticide damage: Grade 0 [1, 5]: 0
Classification and statistics of the grade of pesticide damage: Grade 1 [1, 5]: 0
Classification and statistics of the grade of pesticide damage: Grade 2 [1, 5]: 4
Classification and statistics of the grade of pesticide damage: Grade 3 [1, 5]: 12
Scores [1, 6]: 42
Scores [1, 7]: 92
Resistance evaluation [1, 4]: poorly
Resistance evaluation [1, 5]: non-resistant (non-resistant plants (scores 68-100))
Resistance evaluation ([2]; mesotrione 52.5 g ai/ha): Poorly resistant
Scores ([2]; mesotrione 52.5 g ai/ha): 63
Resistance evaluation [2, 8]: Poorly resistant
Scores [2, 8]: 63
Grade 0 (classification and statistics of the grade of pesticide damage; number of plants) [2, 8]: 0
Grade 1 (classification and statistics of the grade of pesticide damage; number of plants) [2, 8]: 5
Grade 2 (classification and statistics of the grade of pesticide damage; number of plants) [2, 8]: 8
Grade 3 (classification and statistics of the grade of pesticide damage; number of plants) [2, 8]: 3
Classification and statistics of the grade of pesticide damage Grade 0 ([2]; mesotrione 52.5 g ai/ha): 0
Classification and statistics of the grade of pesticide damage Grade 1 ([2]; mesotrione 52.5 g ai/ha): 5
Classification and statistics of the grade of pesticide damage Grade 2 ([2]; mesotrione 52.5 g ai/ha): 8
Classification and statistics of the grade of pesticide damage Grade 3 ([2]; mesotrione 52.5 g ai/ha): 3
Resistance evaluation ([2]; mesotrione 105 g ai/ha): Non-resistant
Scores ([2]; mesotrione 105 g ai/ha): 100
Resistance evaluation [2, 9]: Non-resistant
Scores [2, 9]: 100
Grade 0 (classification and statistics of the grade of pesticide damage; number of plants) [2, 9]: 0
Grade 1 (classification and statistics of the grade of pesticide damage; number of plants) [2, 9]: 0
Grade 2 (classification and statistics of the grade of pesticide damage; number of plants) [2, 9]: 0
Grade 3 (classification and statistics of the grade of pesticide damage; number of plants) [2, 9]: 16
Classification and statistics of the grade of pesticide damage Grade 0 ([2]; mesotrione 105 g ai/ha): 0
Classification and statistics of the grade of pesticide damage Grade 1 ([2]; mesotrione 105 g ai/ha): 0
Classification and statistics of the grade of pesticide damage Grade 2 ([2]; mesotrione 105 g ai/ha): 0
Classification and statistics of the grade of pesticide damage Grade 3 ([2]; mesotrione 105 g ai/ha): 16
Resistance evaluation ([3]; isoxaflutole 35 g ai/ha): Poorly
Scores ([3]; isoxaflutole 35 g ai/ha): 52
Resistance evaluation [3, 10]: Poorly
Scores (pesticide damage) [3, 10]: 52
Classification and statistics of the grade of pesticide damage: Grade 0 (number of plants) [3, 10]: 0
Classification and statistics of the grade of pesticide damage: Grade 1 (number of plants) [3, 10]: 9
Classification and statistics of the grade of pesticide damage: Grade 2 (number of plants) [3, 10]: 5
Classification and statistics of the grade of pesticide damage: Grade 3 (number of plants) [3, 10]: 2
Classification and statistics of the grade of pesticide damage Grade 0 ([3]; isoxaflutole 35 g ai/ha): 0
Classification and statistics of the grade of pesticide damage Grade 1 ([3]; isoxaflutole 35 g ai/ha): 9
Classification and statistics of the grade of pesticide damage Grade 2 ([3]; isoxaflutole 35 g ai/ha): 5
Classification and statistics of the grade of pesticide damage Grade 3 ([3]; isoxaflutole 35 g ai/ha): 2
Resistance evaluation ([3]; isoxaflutole 70 g ai/ha): Non-resistant
Scores ([3]; isoxaflutole 70 g ai/ha): 96
Resistance evaluation [3, 11]: Non-resistant
Scores (pesticide damage) [3, 11]: 96
Classification and statistics of the grade of pesticide damage: Grade 0 (number of plants) [3, 11]: 0
Classification and statistics of the grade of pesticide damage: Grade 1 (number of plants) [3, 11]: 0
Classification and statistics of the grade of pesticide damage: Grade 2 (number of plants) [3, 11]: 2
Classification and statistics of the grade of pesticide damage: Grade 3 (number of plants) [3, 11]: 14
Classification and statistics of the grade of pesticide damage Grade 0 ([3]; isoxaflutole 70 g ai/ha): 0
Classification and statistics of the grade of pesticide damage Grade 1 ([3]; isoxaflutole 70 g ai/ha): 0
Classification and statistics of the grade of pesticide damage Grade 2 ([3]; isoxaflutole 70 g ai/ha): 2
Classification and statistics of the grade of pesticide damage Grade 3 ([3]; isoxaflutole 70 g ai/ha): 14
